Data from patent publication US20040253243, “Aptamer therapeutics useful in ocular pharmacotherapy” (published 2004).
Where two headings read alike, the source gives them in different places.

Columns and labels:
PDGF-AB [1] = target: T1, PDGF-AB (Homo sapiens, UniProt P04085;P01127 P04085:87-211,P01127:82-190)
PDGF-BB [2] = target: T2, PDGF-BB (Homo sapiens, UniProt P01127 P01127:82-190)
PDGF-AB [3] = target: T1, PDGF-AB; assay: p237 labels ARC125 as SEQ 16, Table 3 as SEQ 17
PDGF-BB [4] = target: T2, PDGF-BB; assay: p237 labels ARC125 as SEQ 16, Table 3 as SEQ 17; details: chain copies: 2 (inferred)
TGF-beta2 = target: T3, TGF-beta2 (Rattus, UniProt Q07257 Q07257:331-442); assay: filter; values in figure only; details: chain copies: 2 (inferred)
T3 sequence: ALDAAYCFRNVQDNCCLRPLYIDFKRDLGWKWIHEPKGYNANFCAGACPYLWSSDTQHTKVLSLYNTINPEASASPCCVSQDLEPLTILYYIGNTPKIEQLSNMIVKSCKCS
Protocol: Dissociation constants for the binding of aptamers to purified human or rodent TGFβ-2 protein were determined by nitrocellulose-filter partitioning using ³²P-labeled RNA. In vitro transcribed RNA was treated with calf-intestinal alkaline phophatase (New England Biolabs) to remove 5′-triphosphates, then radio-labeled by incubation with γ-³²P-ATP and T4 polynucleotide kinase (New England Biolabs). Unincorporated label was removed by gel-filtration, and the RNAs were further purified by polyacrylamide gel electrophoresis (PAGE). Purified ³²P-labeled aptamer in water was refolded just prior to use by heating for 3 min at 95° C., followed by a 10 minute room-temperature incubation in binding buffer (50 mM Hepes, pH 7.4, 1 mM MgCl₂, 1 mM CaCl₂, 3 mM KCl, 140 mM NaCl, 0.1 mg/ml BSA, 0.01 mg/ml tRNA). The binding reactions (100 μL) were initiated by the addition of aptamer (≦0.1 nM) to excess TGFβ-2 protein (0.2-100 nM), followed by 10-30 minute equilibration at room temperature.
Nitrocellulose-filter partitioning was performed on Minifold® I, 96-well Dot-Blot manifolds (Schleicher & Schuell). Protein-bound aptamer and residual free aptamer were captured, respectively, on pre-wetted Protran nitrocellulose (Schleicher & Schuell) and Hybond-P polyvinylidene difluoride (Amersham Biosciences) filters by vacuum aspiration, and quantified by PhosphorImager (Amersham Biosciences). […]

T2 sequence (P01127 82-190, one chain of several): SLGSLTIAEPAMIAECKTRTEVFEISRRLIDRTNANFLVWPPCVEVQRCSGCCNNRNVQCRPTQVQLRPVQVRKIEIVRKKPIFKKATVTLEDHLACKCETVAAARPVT
T1 sequence (P01127 82-190, chain 2 of 2, other chains not shown): as the sequence (P01127 82-190, one chain of several) above

TGGGAGGGCGCGTTCTTCGTGGTTACTTTTAGTCCCG (ssDNA, 3'-3'-dT cap) [ARC123]
Kd (PDGF-AB [1]): 0.1 nM | Kd (PDGF-BB [2]): 0.1 nM

CACAGGCTACGGCACGTAGAGCATCACCATGATCCTGTG (ssDNA, 3'-3'-dT cap) [ARC124]
Kd (PDGF-AB [1]): 0.1 nM | Kd (PDGF-BB [2]): 0.1 nM

TACTCAGGGCACTGCAAGCAATTGTGGTCCCAATGGGCTGAGTA (ssDNA, 3'-3'-dT cap) [ARC125]
Kd (PDGF-AB [3]): 0.1 nM | Kd (PDGF-BB [4]): 0.1 nM

GGAGGUUAUUACAGAGUCUGUAUAGCUGUACUCC (ssRNA, 2'-F all C and U, 2'-OH purines, 3'-inverted T (3T)) [ARC77]
binding result (TGF-beta2): binds
